Source: patent US8173397B2, “Folded recombinant catalytic fragments of multidomain serine proteases, preparation and uses thereof” (TargetEx Kft., priority 2002, dated 2012)

B1: MASP-2γB: E. coli-expressed, refolded human MASP-2 CCP1-CCP2-SP fragment, Thr287 to Phe686, Ala-Ser-Met tag; purified form starts with Ile291 (protein)
chain 1: IHYTSTAQPCPYPMAPPNGHVSPVQAKYILKDSFSIFCETGYELLQGHLPLKSFTAVCQKDGSWDRPMPACSIVDCGPPDDLPSGRVEYITGPGVTTYKAVIQYSCEETFYTMKVNDGKYVCEADGFWTSSKGEKSLPVCEPVCGLSARTTGGR
chain 2: IYGGQKAKPGDFPWQVLILGGTTAAGALLYDNWVLTAAHAVYEQKHDASALDIRMGTLKRLSPHYTQAWSEAVFIHEGYTHDAGFDNDIALIKLNNKVVINSNITPICLPRKEAESFMRTDDIGTASGWGLTQRGFLARNLMYVDIPIVDHQKCTAAYEKPPYPRGSVTANMLCAGLESGGKDSCRGDSGGALVFLDSETERWFVGGIVSWGSMNCGEAGQYGVYTKVINYIPWIENIISDF
B2: CCP2-SP: E. coli-expressed, refolded human C1r CCP2-SP fragment, amino acids 376-705, N-terminal Ser-Thr-Gln-Ala (protein)
chain 1: STQACGQPRNLPNGDFRYTTTMGVNTYKARIQYYCHEPYYKMQTRAGSRESEQGVYTCTAQGIWKNEQKGEKIPRCLPVCGKPVNPVEQRQR
chain 2: IIGGQKAKMGNFPWQVFTNIHGRGGGALLGDRWILTAAHTLYPKEHEAQSNASLDVFLGHTNVEELMKLGNHPIRRVSVHPDYRQDESYNFEGDIALLELENSVTLGPNLLPICLPDNDTFYDLGLMGYVSGFGVMEEKIAHDLRFVRLPVANPQACENWLRGKNRMDVFSQNMFCAGHPSLKQDACQGDSGGVFAVRDPNTDRWVATGIVSWGIGCSRGYGFYTKVLNYVDWIKKEMEEED
B3: MASP-2 SP: E. coli-expressed, refolded human MASP-2 serine protease domain, Ala-Ser-Met-Thr tag followed by Pro432, ending Phe686 (protein)
chain 1: ASMTPVCGLSARTTGGR
chain 2: IYGGQKAKPGDFPWQVLILGGTTAAGALLYDNWVLTAAHAVYEQKHDASALDIRMGTLKRLSPHYTQAWSEAVFIHEGYTHDAGFDNDIALIKLNNKVVINSNITPICLPRKEAESFMRTDDIGTASGWGLTQRGFLARNLMYVDIPIVDHQKCTAAYEKPPYPRGSVTANMLCAGLESGGKDSCRGDSGGALVFLDSETERWFVGGIVSWGSMNCGEAGQYGVYTKVINYIPWIENIISDF

What was measured:
C2 = biological target: T1, C2 (Homo sapiens, UniProt P06681); assay: C2 cleavage by MASP fragments; format: biochemical; conditions: 37° C., pH 7.4; averages of 2 to 4 experiments, standard errors
T1 construct: from tissue
T1 sequence (P06681 21-752): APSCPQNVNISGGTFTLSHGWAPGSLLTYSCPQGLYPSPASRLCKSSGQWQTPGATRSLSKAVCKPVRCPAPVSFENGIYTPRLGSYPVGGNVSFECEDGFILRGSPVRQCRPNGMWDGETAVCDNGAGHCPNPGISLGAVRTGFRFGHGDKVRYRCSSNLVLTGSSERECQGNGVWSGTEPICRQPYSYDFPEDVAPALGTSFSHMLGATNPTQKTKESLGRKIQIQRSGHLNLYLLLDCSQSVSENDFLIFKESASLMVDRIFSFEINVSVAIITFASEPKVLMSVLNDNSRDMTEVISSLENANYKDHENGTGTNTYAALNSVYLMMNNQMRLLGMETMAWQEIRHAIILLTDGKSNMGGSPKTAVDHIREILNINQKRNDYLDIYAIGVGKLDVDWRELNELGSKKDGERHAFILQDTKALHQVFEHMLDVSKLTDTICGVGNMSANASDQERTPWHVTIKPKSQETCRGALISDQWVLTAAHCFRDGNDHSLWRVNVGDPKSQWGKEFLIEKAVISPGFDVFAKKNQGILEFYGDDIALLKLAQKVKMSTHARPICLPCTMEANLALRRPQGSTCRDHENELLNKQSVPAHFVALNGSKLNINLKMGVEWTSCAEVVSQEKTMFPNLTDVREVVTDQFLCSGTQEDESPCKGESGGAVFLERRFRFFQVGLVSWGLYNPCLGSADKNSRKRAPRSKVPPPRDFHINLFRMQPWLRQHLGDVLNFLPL
Description: (§1) C2, C3, C3(NH3), C4 cleavage—Serial dilutions of MASP-1 and MASP-2 fragments ranging between concentrations of 1 μM and 10 pM were incubated at 37° C. in 20 mM HEPES, 140 mM NaCl, pH 7.4 with C2, C3, C3(NH3) or C4 at typical concentrations of 0.5-1 μM. The cleavage was followed by SDS-PAGE under reducing conditions. Desirable concentrations of the MASP fragments for further detailed kinetic analysis were chosen to be where half of the protein substrates were hydrolyzed during the first 20 minutes of incubation. The protein substrates C2, C3, C3(NH3) or C4 were then incubated with the selected concentrations of the MASP fragments at 37° C. in 20 mM HEPES, 140 mM NaCl, pH 7.4. Typically 11-13 samples were taken at varying time periods but always within 50 minutes from the beginning of the reaction. Cleavages rates were quantified by measuring the diminution of the cleaved chain visualized by Coomassie stained SDS-PAGs using a GEL DOC 1000 instrument and Molecular Analyst Software for densitometric calculations (Bio-Rad, Hercules, Calif., USA). The reactions were assumed to be of the Michaelis-Menten type. In the case of C3 and C3(NH3) cleavage a further reasonable assumption of KM>>[substrate] was made. The constants KM, kcat and […] were estimated by unbiased non-linear regression methods regressing the data on the following equations: t=([S0]−[S]+KMln([S0]/[S]))/(kcat[E0]) or in the case of C3 and C3(NH3) cleavage on [S]=[S0]exp(−t[E0]kcat/KM).

C4 = C4 cleavage by MASP fragments; format: biochemical, human; conditions: 37° C., pH 7.4; averages of 2 to 4 experiments, standard errors
Description: as §1

C1-inhibitor = biological target: T2, C1-inhibitor (Homo sapiens, UniProt P05155); assay: Rate of SDS stable complex formation of 125I-labelled MASP fragments with C1-inhibitor; format: biochemical
T2 construct: Purification of C1-inh and Alpha-2-Macroglobulin; from tissue
T2 sequence (P05155 23-500): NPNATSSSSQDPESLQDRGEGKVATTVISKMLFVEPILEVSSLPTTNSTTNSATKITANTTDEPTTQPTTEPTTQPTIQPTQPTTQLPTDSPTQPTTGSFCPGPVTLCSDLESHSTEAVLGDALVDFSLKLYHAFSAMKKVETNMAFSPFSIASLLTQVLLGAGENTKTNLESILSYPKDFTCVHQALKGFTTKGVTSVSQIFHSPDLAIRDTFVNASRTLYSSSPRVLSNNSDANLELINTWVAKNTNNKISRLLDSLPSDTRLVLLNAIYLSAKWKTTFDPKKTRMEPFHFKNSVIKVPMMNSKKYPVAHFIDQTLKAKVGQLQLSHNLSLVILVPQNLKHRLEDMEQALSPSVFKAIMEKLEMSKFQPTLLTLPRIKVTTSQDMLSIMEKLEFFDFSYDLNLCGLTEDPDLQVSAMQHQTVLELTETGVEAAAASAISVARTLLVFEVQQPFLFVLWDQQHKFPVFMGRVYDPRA
Description: To assess the rate of SDS stable complex formation between the MASP-1 and MASP-2 CCP1-CCP2-SP fragments and C1-inhibitor, the ^125I-labelled MASP fragments at concentrations ranging between 30-100 nM were incubated with 100-350 nM C1-inhibitor at 37° C. in 20 mM HEPES, 140 mM NaCl, pH 7.4 for 40 minutes. Typically 11-13 samples were taken at varying time periods. The reactions were stopped by reducing sample buffer containing 0.125 M Tris, 4.8% SDS, 8 M urea 20% glycerol, 720 mM mercaptoethanol, 0.02% bromophenol blue, pH6.8. The samples were further incubated at 37° C. for 30 minutes and run on reducing SDS-PAGE. Cleavages rates were visualized by means of autoradiography and the diminution of the reacted MASP chain was quantified using a GEL DOC 1000 instrument and Molecular Analyst Software for densitometric calculations (Bio-Rad, Hercules, Calif., USA). The kinetic constants were calculated assuming irreversible inhibition proceeded by reversible enzyme-inhibitor complex formation. Using steady-state approximation and neglecting the starting enzyme concentration compared to the starting inhibitor concentration ([I0]>>[E0]) the data was regressed on the following equation using non-linear regression methods: [E]=[E0]exp(−kobst); kobs=k2[I0]/(Ki+[I0]), where kobs is the observed pseudo-first order rate of reaction, k2 is the rate of irreversible enzyme-inhibitor complex formation and Ki is the inhibitory constant.

[1] = Differential scanning calorimetry of C1r fragments; format: physicochemical; conditions: 20 mM Tris pH 8.3, 145 mM NaCl, 0.1 mg/ml, 1° C./min
Description: Calorimetric measurements were performed on a VP-DSC (Microcal Inc, Northampton, Mass.) differential scanning calorimeter. Denaturation curves were recorded between 10 and 80° C. at a pressure of 2.5 atm, using a scanning rate of 1° C./min. The protein concentration was set to 0.1 mg/ml. Samples were dialyzed against 20 mM Tris pH 8.3 145 mM NaCl, and the dialysis buffer was used as a reference. Heat capacities were calculated as outlined by Privalov (16).

Row | Molecule | C2 kcat (C2) | C4 kcat (C4) | Ki values for the C1-inhibitor reaction, in words (C1-inhibitor) | k2, rate of irreversible enzyme-inhibitor complex formation with C1-inh (C1-inhibitor; 37° C., pH 7.4) | Ki (C1-inhibitor; 37° C., pH 7.4, read-out: Ki, reaction with C1-inh) | kobs, pseudo-first order rate of reaction with C1-inh (C1-inhibitor; [C1-inh] = 350 nM, 37° C., pH 7.4) | DSC melting / unfolding transition temperature [1]
1 | B1 | 1.9 ± 0.8 s⁻¹ | 0.9 ± 0.4 s⁻¹ | in the nanomolar range | 0.008 s⁻¹ | 8.8 nM | 0.0078 s⁻¹ | 
2 | B2 |  |  |  |  |  |  | 55.4 °C
3 | B3 | 3.9 ± 3.0 s⁻¹ | 0.20 ± 0.06 s⁻¹ |  |  |  |  | 
